Molecular target: T1, recombinant human PCPE-2 (procollagen C-proteinase enhancer 2) fused to a 6 Histidine-tag at the N-terminus (human) (UniProt Q9UKZ9)
T1 sequence: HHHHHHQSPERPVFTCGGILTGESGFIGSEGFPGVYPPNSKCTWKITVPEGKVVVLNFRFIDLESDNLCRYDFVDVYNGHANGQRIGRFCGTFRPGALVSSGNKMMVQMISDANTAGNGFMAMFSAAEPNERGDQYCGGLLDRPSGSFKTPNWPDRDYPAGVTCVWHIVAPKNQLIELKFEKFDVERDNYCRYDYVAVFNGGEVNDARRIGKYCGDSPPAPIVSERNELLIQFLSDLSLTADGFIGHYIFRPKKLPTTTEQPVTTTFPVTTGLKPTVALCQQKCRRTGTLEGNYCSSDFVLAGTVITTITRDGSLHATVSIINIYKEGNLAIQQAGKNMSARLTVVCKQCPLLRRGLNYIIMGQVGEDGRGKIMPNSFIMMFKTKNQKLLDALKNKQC
Assay: SPR competition: BMP-1 (200 nM) co-injected with PCPE-2 (200 nM) over immobilized C-propeptide III carrying PCPE-2

- % inhibition: 77%
B1: human BMP-1 (bone morphogenetic protein-1) fused to a C-terminal Flag tag (enzyme, UniProt P13497-2 121-730, looked up, not shown: small tags and cut ends)
chain: AATSRPERVWPDGVIPFVIGGNFTGSQRAVFRQAMRHWEKHTCVTFLERTDEDSYIVFTYRPCGCCSYVGRRGGGPQAISIGKNCDKFGIVVHELGHVVGFWHEHTRPDRDRHVSIVRENIQPGQEYNFLKMEPQEVESLGETYDFDSIMHYARNTFSRGIFLDTIVPKYEVNGVKPPIGQRTRLSKGDIAQARKLYKCPACGETLQDSTGNFSSPEYPNGYSAHMHCVWRISVTPGEKIILNFTSLDLYRSRLCWYDYVEVRDGFWRKAPLRGRFCGSKLPEPIVSTDSRLWVEFRSSSNWVGKGFFAVYEAICGGDVKKDYGHIQSPNYPDDYRPSKVCIWRIQVSEGFHVGLTFQSFEIERHDSCAYDYLEVRDGHSESSTLIGRYCGYEKPDDIKSTSSRLWLKFVSDGSINKAGFAVNFFKEVDECSRPNRGGCEQRCLNTLGSYKCSCDPGYELAPDKRRCEAACGGFLTKLNGSITSPGWPKEYPPNKNCIWQLVAPTQYRISLQFDFFETEGNDVCKYDFVEVRSGLTADSKLHGKFCGSEKPEVITSQYNNMRVEFKSDNTVSKKGFKAHFFSEKRPALQPPRGRPHQLKFRVQKRNRTPQ
